Assays:
[1] = Competition Caffeine-ELISA, cross-reactivity with theophylline; type: binding
Description: (§1) Binding of VHH proteins to unconjugated caffeine was also assessed by a competition assay (Competition Caffeine-ELISA) in which 0-800 μg/mL caffeine (Sigma-Aldrich) was added as a competitor along with the VHH during the Primary Antibody Step of the Standard Caffeine-ELISA. All other steps are the same as for the Standard Caffeine ELISA. A405 readings with and without competitor were compared. The competition ELISA was used to assess cross-reactivity of theophylline and theobromine (Example 9, FIG. 4) and also the amount of caffeine in various beverages (Example 9, FIG. 7, Table 3).
(§2) Two additional methylxanthines with similar structure to caffeine, theobromine and theophylline, were tested for cross-reactivity with VSA2. The Competition Caffeine-ELISA described above was run using theobromine and theophylline (Sigma-Aldrich) as competitors at concentrations up to 250 μg/mL and compared to competition by caffeine.
(§3) The results of the competition caffeine-ELISA run with increasing concentrations of caffeine (-▪-), theophylline (. .●. .) or theobromine (- -▴- -) is shown in FIG. 4. The response (B) was compared to that of no competitor (Bo).

[2] = Competition Caffeine-ELISA, cross-reactivity with theobromine; type: binding; conditions: theobromine at concentrations up to 250 μg/mL
Description: as §1, §2, §3

[3] = Removal of caffeine from solution by VSA2 NiNTA agarose column
Description: (§4) The ability of VSA2 to remove caffeine from solution was assessed. VSA2 still containing the His Tag (prior to thrombin cleavage) was coupled to a NiNTA agarose column via its N-terminus His Tag. Approximately 1 mg of antibody was bound to 1 ml of swollen agarose. One mg of a different unrelated protein which also contained a Histag was bound to a NiNTA agarose column as a control. Five μg of caffeine in 0.5 ml of PBS was passed over the column and then washed with 4 ml of PBS and 0.5 ml fractions collected. The amount of caffeine in the wash solutions was determined by absorbance at 273 nm and converted to amount of caffeine via comparison with the absorbance of standards (0, 2.5, 5, 10 ug).
The caffeine bound to the column was eluted with 8 M urea, 100 mM sodium phosphate, 10 mM tris, pH 6.3 and 4.1 ug of caffeine came off the column which was in excellent agreement with the 4.2 ug which had originally bound to the column. No caffeine was eluted from the control column.
The ability of the VSA2 column to remove caffeine from solution was confirmed using HPLC (method previously described) to analyze the original caffeine solution put on the column and the fractions from the column washes. […] The HPLC procedure could not be used to measure the caffeine eluted from the column due to the presence of 8 M urea.

[4] = Thermal stability: Standard Caffeine-ELISA after heat pre-incubation; type: binding
Description: (§5) After caffeine specific clones had been identified, soluble VHH proteins not linked to phage particles were expressed (Harrison, supra). Binding activity of the VHH proteins was assessed in a Standard Caffeine-ELISA. Microtiter plates were coated with caffeine and blocked as above (Coating and Blocking Steps). The VHH proteins serially diluted in 20 mM Tris. pH 7.2 containing 150 mM NaCl and 0.1% Tween (TBS/BSA/Tween) were added and incubated for 90 min at 37° C. (Primary Antibody Step). Bound VHH fragments were detected by the addition of a 1/1000 dilution in TBS/BSA/Tween of mouse-anti-E Tag antibody (Amersham Bioscience Corporation) for 90 min at 37° C. (Secondary Antibody Step), followed by the addition of a 1/1000 dilution in TBS/BSA/Tween of goat-anti-mouse IgG-alkaline phosphatase conjugate for 90 min at 37° C. (Reporter Antibody Step), before the addition of para-nitrophenyl phosphate substrate (p-npp) (Sigma Aldrich) (Substrate Step). The wells were washed and monitored at A405 as above. The Standard ELISA assay was used to assess thermal stability and reactivity of VSA2 (Example 9, FIGS. 5 and 6).
The thermal stability of VSA2 was determined and compared to that of two mouse anti-caffeine monoclonal antibodies (Catalog No. G45110 M and G45111 M, U.S. Biological, Swampscott, Mass.). Antibody solutions were prepared in TBS containing 0.1% Tween and incubated for 20 min at temperatures ranging from RT to 90° C. The solutions were re-equilibrated to RT before measuring caffeine binding activity. For VSA2, the Standard Caffeine-ELISA protocol was followed. For the commercial mouse monoclonal antibodies, the Secondary Antibody Step was skipped.

[5] = Thermal reactivity at 70° C. with caffeine-biotinylated nonapeptide and streptavidin magnetic beads; type: binding
Description: as §5
The thermal reactivity of VSA2 was also determined. […] The amount of unbound VSA2 remaining in the supernatant was determined in a Standard Caffeine-ELISA.

[6] = Competition Caffeine-ELISA, competition by caffeine; type: binding; conditions: competitors caffeine, theophylline, theobromine; FIG. 4
Description: as §5, with “The Standard ELISA assay was used to assess thermal stability and reactivity of VSA2 (Example 9, FIGS. 5 and 6).” left out
Binding of VHH proteins to unconjugated caffeine was also assessed by a competition assay (Competition Caffeine-ELISA) in which 0-800 μg/mL caffeine (Sigma-Aldrich) was added as a competitor along with the VHH during the Primary Antibody Step of the Standard Caffeine-ELISA. […] A405 readings with and without competitor were compared. […]

[7] = Removal of caffeine from decaffeinated coffee by VSA2 column; conditions: HPLC
Description: as §4
The ability of VSA2 to remove caffeine from “decaffeinated” coffee was also assessed using brewed decaffeinated coffee (Seattle's Best™). By HPLC analysis, this batch of decaffeinated coffee had 30.8 μg/mL of caffeine. One hundred and sixty seven μL (5.15 μg caffeine) of the decaffeinated coffee was placed on the column and then the column washed as previously described and caffeine measured by HPLC in the 0.5 ml aliquots. 3.9 μg of caffeine was removed from the first decaffeinated coffee aliquot placed on the column and 0.5 μg from the second 167 μl aliquot. The total of 4.4 μg of caffeine removed by the column was very similar to the 4.2 μg removed by the column when caffeine was in a simple solution.

B1: VSA2: caffeine-specific llama single-domain heavy-chain (VHH) antibody fragment; SEQ ID NO: 1 with T7 and E tags, SEQ ID NO: 4 core (protein)
VHH: GSHMASMTGGQQMGRGSEFAEVQLQASGGGLVQAGGSLRLSCTASGRTGTIYSMAWFRQAPGKEREFLATVGWSSGITYYMDSVKGRFTISRDNAKNSAYLQMNSLKPEDTAVYYCTATRAYSVGYDYWGQGTQVTVSHAAAGAPVPYPDPLEPR
modifications: T7 and E tags; Camelidae antibody
- amount of theophylline relative to caffeine needed for equivalent competition [1]: approximately fourteen times as much theophylline as caffeine
- cross-reactivity with theophylline [1]: 7.4%
- competition by theophylline ([1]; theophylline at 250 μg/mL): some competition
- competition by theobromine [2]: essentially no competition
- caffeine bound to the column ([3]; HPLC analysis): 3.8 µg
- caffeine eluted from the column ([3]; eluted with 8 M urea, 100 mM sodium phosphate, 10 mM tris, pH 6.3): 4.1 µg
- caffeine bound to the column ([3]; first 5 μg caffeine aliquot, UV method): 3.6 µg
- caffeine recovered in the washing solutions ([3]; five μg caffeine in PBS added, about 1 mg His-tagged VSA2 on 1 ml agarose, absorbance at 273 nm, average of duplicate): 1.4 µg
- additional bound caffeine ([3]; second 5 ug caffeine aliquot, UV method): 0.6 µg
- total caffeine originally bound to the column ([3]; two 5 ug aliquots, UV method): 4.2 µg
- effect of heat pre-incubation on caffeine binding ([4]; 20 min at temperatures of 60° C. and below, re-equilibrated to RT): no effect
- activity retained after heat pretreatment ([4]; 20 min at temperatures up to 90° C., re-equilibrated to RT): greater than 90%
- heat stability compared among four representative clones ([4]; purified soluble antibodies, 2 llama and 2 camel clones): greatest degree of heat stability
- VHH remaining in solution ([5]; 20 μg/mL caffeine-biotinylated-nonapeptide): 56.8%
- VHH remaining in solution ([5]; 200 μg/mL caffeine-biotinylated-nonapeptide): 20.1%
- specificity for caffeine in competition caffeine-ELISA (B/Bo) [6]: highly specific for caffeine
- caffeine removed ([7]; first 167 μL decaffeinated coffee aliquot (5.15 μg caffeine)): 3.9 µg
- caffeine removed ([7]; second 167 μl decaffeinated coffee aliquot): 0.5 µg
- total caffeine removed by the column ([7]; two decaffeinated coffee aliquots): 4.4 µg
